According to patent publication US20020137918A1:
Where a chain is given by its changes, count along the chain named. In names and notes the source's numbering stands.

What was measured:
[1] = target: human κ-chain (human); test: method not given
[2] = target: human IgG (human); test: method not given
[3] = target: human κ-chain (human); test: affinity chromatography, Y53F PpL coupled to agarose, human κ-chain eluted by rising pH
[4] = target: human κ-chain (human); test: affinity chromatography, Y53F PpL coupled to agarose, human κ-chain eluted by rising KCl
[5] = target: human IgG (human); test: competitive ELISA at pH 8.0, PpL on the plate
[6] = target: human IgG (human); test: competitive ELISA at pH 8.0, against the Kd of PpL (112 nM)
[7] = target: human κ-chain (human); test: affinity chromatography, Y53F PpL coupled to agarose, human κ-chain eluted by falling pH
[8] = target: human κ-chain (human); test: Kd at pH 8, method not stated; one Kd given for the mutation, ticked in PpL and Y64W PpL
[9] = target: human κ-chain (human); test: affinity chromatography, Y64W PpL coupled to agarose, human κ-chain eluted by falling pH
[10] = target: human κ-chain (human); test: affinity chromatography, Y64W PpL coupled to agarose, human κ-chain eluted by rising pH
[11] = target: human κ-chain (human); test: affinity chromatography, Y64W PpL coupled to agarose, human κ-chain eluted by rising KCl
[12] = target: human κ-chain (human); test: tryptophan fluorescence, complex against the sum of the spectra of the single proteins
[13] = target: human IgG (human); test: competitive ELISA, PpL on the plate, human IgG
[14] = target: human IgG (human); test: competitive ELISA; told as 'previously determined for PpL'
[15] = target: human κ-chain (human); test: affinity chromatography, PpL coupled to agarose, human κ-chain eluted by rising pH
[16] = target: human κ-chain (human); test: affinity chromatography, PpL coupled to agarose, human κ-chain eluted by falling pH
[17] = target: human IgG (human); test: competitive ELISA, human IgG
[18] = target: human κ-chain (human); test: affinity chromatography, PpL coupled to agarose, human κ-chain eluted by rising KCl
[19] = target: human κ-chain (human); test: competitive fluorescence titration, PpL2Asn as competitor
[20] = target: human κ-chain (human); test: Kd at pH 8, method not stated; mutation ticked in PpL
[21] = target: human κ-chain (human); test: fluorescence titration of F39W into 0.75 µM kappa chain, 18 °C, pH 8
[22] = target: human κ-chain (human); test: Kd at pH 8, method not stated; one Kd given for the mutation, ticked in Y64W PpL and F39W PpL
[23] = target: human κ-chain (human); test: Kd at pH 8, method not stated; mutation ticked in F39W PpL
[24] = target: human κ-chain (human); test: tryptophan fluorescence, complex against the sum of the single proteins
[25] = target: human κ-chain (human); test: Kd at pH 8, method not stated; mutation ticked in Y64W PpL
[26] = target: human κ-chain (human); test: isothermal titration calorimetry, 800 µM L57H PpL into 40 µM kappa light chain, 25 °C, pH 8.0
[27] = target: human IgG (human); test: competitive ELISA, Wt PpL immobilized, human IgG
[28] = target: human κ-chain (human); test: stopped flow fluorescence, equilibrium Kd
[29] = target: human κ-chain (human); test: stopped flow fluorescence, encounter complex
[30] = target: human κ-chain (human); test: stopped flow fluorescence

Y53F PpL
fold reduction in affinity against PpL [1]: 27 fold
Kd [2]: 2000 nM
elution condition, increased pH [3]: 9.6 pH
elution condition, increase KCl [4]: 0.75 M
Kd [5]: 3200 nM
fold increase in Kd against PpL [6]: 25 fold
elution condition, decreased pH [7]: 3.2 pH
Kd [8]: 1700 nM

B1: Y64W PpL (protein)
chain: MNIKFAGKETPETPEEPKEEVTIKVNLIFADGKIQTAEFKGTFEEATAEAYRYADLLAKVNGEWTADLEDGGNHMNIKFAGK
elution condition, decreased pH [9]: 2.03 pH
elution condition, increased pH [10]: 10.1 pH
elution condition, increase KCl [11]: 0.96 M
quench in fluorescence emission of the complex [12]: 9%
Kd [13]: 129 nM

B2: PpL (protein)
chain: B1 chain with W64Y
Kd [14]: 112 nM
elution condition, increased pH [15]: 10.2 pH
elution condition, decreased pH [16]: 1.96 pH
Kd [17]: 160 nM
elution condition, increase KCl [18]: 0.95 M

B3: F39W PpL (protein)
chain: B1 chain with F39W, W64Y
Kdapp in the presence of 5 µM PpL2Asn [19]: 310 nM
Kd [20]: 160 nM
Kd [21]: 161 nM

B4: Q35E Y64W PpL (protein)
chain: B1 chain with Q35E
Kd [22]: 300 nM

B5: Q35E F39W PpL (protein)
chain: B1 chain with Q35E, F39W, W64Y
Kd [22]: 300 nM

B6: F39H PpL (protein)
chain: B1 chain with F39H, W64Y
Kd [8]: 1000 nM

B7: F39H Y64W PpL (protein)
chain: B1 chain with F39H
Kd [8]: 1000 nM

B8: Y53H F39W PpL (protein)
chain: B1 chain with F39W, Y53H, W64Y
Kd [23]: 500 nM

B9: Y53F Y64W PpL (protein)
chain: B1 chain with Y53F
Kd [5]: 3320 nM
increase in fluorescence signal of the complex [24]: 10%
Kd [8]: 1700 nM

B10: L57D Y64W PpL (protein)
chain: B1 chain with L57D
Kd [25]: 2000 nM

B11: L57H PpL (protein)
chain: B1 chain with L57H, W64Y
Kd [26]: 5200 nM
Kd [27]: 4200 nM
Kd [8]: 6000 nM

B12: L57H Y64W PpL (protein)
chain: B1 chain with L57H
Kd [28]: 5400 nM
pre-equilibrium Kd [29]: 6800 nM
fold of equilibrium Kd against Y64W PpL [30]: 30 fold
fold of pre-equilibrium Kd against Y64W PpL [30]: 2 fold
Kd [8]: 6000 nM

B13: N76D F39W PpL (protein)
chain: B1 chain with F39W, W64Y, N76D
Kd [23]: 400 nM
